Measurements as given in US20220193111A1, “Method of Treatment” (The University Court of the University of Edinburgh, priority 2018, published 2022).

B1: miR-148b mimic: miR-148b mimic oligonucleotide; in a particular embodiment has SEQ ID NO: 1, the human precursor miR-148b sequence (nucleic acid)
chain: CAAGCACGAUUAGCAUUUGAGGUGAAGUUCUGUUAUACACUCAGGCUGUGGCUCUCUGAAAGUCAGUGCAUCACAGAACUUUGUCUCGAAAGCUUUCUA
modifications: listed as RNA, chemistry not given here

What was measured:
Assay type in all cases: cell-based, human
HUVECs = assay: ECIS plasma membrane capacitance analysis; conditions: HUVECs knock-down for miR-148b
Procedure: Confluent HUVECs were transfected with controls or miR-148b mimic or anti-miR-148b and, plated on the ECIS chip array (8W1E or 8W10E). The migration speed was calculated in μm/h, capacitance of the plasma membrane is Cm (μF/cm^2) as reported in Giaever, I, and Keese, C R (1991)^29.

3′UTR of TGFB2 = assay: Luciferase reporter assay, wild-type 3′UTR of TGFB2; conditions: 48 h post-co-transfection, HEK293T cells or HUVECs; mutation of the binding sites restored it
Source text: (§1) Luciferase assay has been performed as previously described^53. TGFB2 3′-UTR and SMAD2 3′-UTR vectors were cloned in pMIR-Reporter (Life Technology). Primers are used for the cloning are: TGFβ2 3′UTR: Forward 5′-[…]-3′ (SEQ ID NO: 7), Reverse 5′-[…]-3′ (SEQ ID NO: 8); SMAD2 3′UTR: Forward 5′-[…]-3′ (SEQ ID NO: 9), Reverse 5′-[…]-3′ (SEQ ID NO: 10). Primers for 3′UTR mutation: TGFB2: Forward […] (SEQ ID NO: 11) and Reverse […] (SEQ ID NO: 12); SMAD2 Forward […] (SEQ ID NO: 13) and Reverse […] (SEQ ID NO: 14). Luciferase constructs were transfected into HEK293T cells or HUVECs together with miR-148b mimics or p-SV-beta-Gal control vector. Cells were cultured for 48 h and assayed with the Luciferase and β-Galactosidase Reporter Assay Systems (Promega). Luciferase values were normalized to protein concentration and β-galactosidase activity.

3′UTR of SMAD2 = assay: Luciferase reporter assay, wild-type 3′UTR of SMAD2; conditions: 48 h post-co-transfection, HEK293T cells or HUVECs; mutation of the binding sites restored it
Source text: as §1

Molecule	membrane capacitance (Cm) (HUVECs)	luciferase activity, 3′-UTR-TGFB2 reporter (3′UTR of TGFB2)	luciferase activity, 3′-UTR-SMAD2 reporter (3′UTR of SMAD2)
anti-miR-148b: miR-148b inhibitor oligonucleotide; suitable inhibitor: hsa-miR-148b-3p miRCURY LNA inhibitor, CAAAGTTCTGTGATGCACTG (SEQ ID NO: 6) (commercial miRCURY LNA inhibitor, LNA positions not given here)	increased		
B1		decreased luciferase activity	decreased luciferase activity
